The values below come from patent US20060058253, “Methods to reprogram splice site selection in pre-messenger rnas” (published 2006).

Conditions in all cases: tags: GST
Series [1] addresses T1, UP1 (shortened hnRNP A1), GST fusion (UniProt P09651 P09651:1-196). Put plainly: EMSA.
Series [2] deals with T1, UP1 (shortened hnRNP A1), GST fusion. Put plainly: EMSA; best UP1 binder (printed X4-A1W). In general terms: In EMSA bound probe runs differently from free probe, usually more slowly.
For series [3] the target is unchanged. The series is described as follows: EMSA; text prints X-M4A1W as non-binder, evidently X-M4A1M.
For series [4] the target is unchanged. The series is described as follows: EMSA. The procedure:
(§1) A shortened version of recombinant hnRNP A1 (GST-UP1) was used for testing binding affinity. Each labeled oligo was incubated with increasing amounts of GST-UP1 (0.5 and 1 μg). The TS10 oligo is a telomeric DNA oligo of 60 nt containing nine high-affinity A1 binding sites. Complexes were fractionated in a 5% acrylamide gel. The position of the free oligos and complexes is shown. (C) Pre-mRNAs were incubated in a HeLa extract for 2 hours in the presence of increasing amounts of oligonucleotides (0.01, 0.02, 0.05, 0.1, 0.5 pmoles in 12.5 μl reaction). The RNA was extracted and fractionated on a denaturing 11% acrylamide gel. The position of the pre-mRNAs, splicing intermediates and products is indicated. (D) Based on the results obtained in panel C, the relative use of proximal and distal splicing was compiled, expressed as a ratio of percentages and plotted relative to the amount of oligo used. (E) Labeled pre-mRNAs were incubated as above in the presence of increasing amounts of oligonucleotides (0.01, 0.02, 0.05, 0.1, 0.5 pmoles in 12.5 μl reaction). The RNA was extracted and fractionated on a denaturing 11% acrylamide gel. The position of the pre-mRNAs, splicing intermediates and products is indicated. (F) Labeled pre-mRNAs were incubated with increasing amounts of oligonucleotides (0.01, 0.02, 0.05, 0.1, 0.5 pmoles in 12.5 μl reaction). […]
The source holds these as a separate data set.

The target is the same in series [5]. The series is described as follows: EMSA; best binder; 0.5 and 1 ug GST-UP1. The procedure:
as §1

T1 sequence (P09651 1-196, one chain of several): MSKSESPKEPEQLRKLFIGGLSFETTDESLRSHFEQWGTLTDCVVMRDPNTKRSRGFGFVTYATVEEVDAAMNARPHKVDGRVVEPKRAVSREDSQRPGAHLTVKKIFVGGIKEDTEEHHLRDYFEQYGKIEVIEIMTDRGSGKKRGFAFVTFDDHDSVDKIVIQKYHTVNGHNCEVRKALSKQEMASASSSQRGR

GCCGCCGUUCUCCUGGAUCC (ssRNA, 2'-OMe) [X-M4]: the binding result in series [1] is reported as “no binding”.

In the case of UAUGAUAGGGACUUAGGGUGGCCGCCGUUCUCCUGGAUCC (ssRNA, 2'-OMe) [X-M4A1W], in series [2], the binding result was “binds”.

Consider UAUGAUACGCACUUACGCUGGCCGCCGUUCUCCUGGAUCC (ssRNA, 2'-OMe) [X-M4A1M], for which the binding result in series [3] was “no binding”.

As for UACCACCGCCAAAGCCGCCU (ssRNA) [C5-M4], in series [4], the binding result was “no binding”.

Take UAUGAUAGGGACUUAGGGUGUACCACCGCCAAAGCCGCCU (ssRNA) [C5-M4A1W]: the binding result in series [5] is on record as “binds”. For UAUGAUACGCACUUACGCUGUACCACCGCCAAAGCCGCCU (ssRNA) [C5-M4A1M], the binding result in series [4] is on record as “no binding”. For UUCUUACCCAGCCGCCGUUC (ssRNA, 2'-OMe) [X-5], in series [1], the binding result was “no binding”.
